167 variants from the RNAGym collection of RNA variant scans (doi:10.7554/elife.80360) can be followed below.

The chains are these.
B1: Twister Ribozyme (parent)
chain: AACACUGCCAAUGCCGGUCCCAAGCCCGGAUAAAAGUGGAGGGGGCGG

This data set covers variants of B1. Put plainly: self-cleavage, relative activity (ratio to wild type); higher = more cleavage; co-transcriptional.
For U18C U31C, the self-cleavage was 0.569.

In the case of C19A A40G, the self-cleavage was 0.124. For the variant U18G G39A, the self-cleavage was determined as 0.107. For U18G G39U, the self-cleavage is 0.0734. The same measure for U18C A40G: 0.121; for U18C A40C: 0.0612. The same measure for U18C A40U: 0.113; for U18G A35G: 0.0984; for U18G A35U: 0.0933.

As to U18C C26A, the self-cleavage was found to be 0.0527.

Regarding C19A, the self-cleavage was determined as 0.384. The same measure for C19A C25U: 0.0834; for C19A A30C: 0.124. The same measure for U18C G36A: 0.158.

Turning to U18C G36U, the self-cleavage is 0.0651. On to U18A G29A, for which the self-cleavage is 0.41.

For the variant U18C A32U, the self-cleavage came to 0.464. In the case of C19A A22G it was 0.0827. Consider U18A C25G, for which the self-cleavage was 0.0662. Turning to U18A C25A, the self-cleavage was found to be 0.0777.

As for U18A C20G, the self-cleavage was 0.0551. Consider U18A C20U, for which the self-cleavage was 0.168.

Turning to C19A G28A, the self-cleavage was 0.184.

On to C19A G28C, for which the self-cleavage came to 0.135. Turning to C19A G36U, the self-cleavage is 0.0959. Consider C19A G36C, for which the self-cleavage turned out to be 0.0909. Regarding C19A G24C, the self-cleavage came to 0.0773.

As for U18C G39A, the self-cleavage stood at 0.111.

Consider U18C G39C, for which the self-cleavage was 0.108. On to C19A C46G, for which the self-cleavage is 0.177.

Take C19A C46U: the self-cleavage is 0.304. The same measure for U18C G45U: 0.228; for C19A G29C: 0.0998. The same measure for C19A G29U: 0.207. The same measure for C19A G41A: 0.0916; for U18G G41C: 0.0434.

For U18A G45C, the self-cleavage turned out to be 0.155. As for U18A G45A, the self-cleavage worked out at 0.32. The same measure for U18G C46U: 0.129; for U18G C46G: 0.0845. The same measure for U18G A23C: 0.0482; for U18G A23G: 0.0817. U18A A34C: the self-cleavage is 0.113. The same measure for U18A A33G: 0.203; for U18A A33U: 0.391; for U18C G24A: 0.0865. In the case of U18C G29U it was 0.27; in that of U18C G29C, 0.0613; in that of U18A G42C, 0.215. Regarding U18A G42A, the self-cleavage is 0.104. In the case of U18C C25U it was 0.16; in that of U18C C25G, 0.104. Take U18G C20U: the self-cleavage amounted to 0.102. Turning to C19A G38C, the self-cleavage came to 0.0851. The same measure for U18C C20U: 0.375. In the case of U18G G24U it was 0.0765. Regarding U18G G36U, the self-cleavage came to 0.083. Turning to U18C, the self-cleavage stood at 0.664. For the variant U18G, the self-cleavage was 0.0785. For the variant U18G A32C, the self-cleavage was 0.0661.

With U18G A32U, the self-cleavage worked out at 0.0793.

For U18A C27U, the self-cleavage worked out at 0.385.

With U18C G44C, the self-cleavage was 0.49. In the case of U18C G44U it was 0.498. As for U18G G47C, the self-cleavage was found to be 0.0806. In the case of U18C A33C it was 0.386. U18A G43U: the self-cleavage was 0.125.

Turning to U18A G43C, the self-cleavage stood at 0.144. On to U18C C19U, for which the self-cleavage was 0.247.

With U18C C19G, the self-cleavage stood at 0.0747. Turning to U18G A22C, the self-cleavage is 0.0631.

With U18C U37G, the self-cleavage turned out to be 0.155. Regarding U18C U37C, the self-cleavage turned out to be 0.0756. In the case of C19A C26G it was 0.0718; in that of C19A C26A, 0.0793; in that of C19A C27U, 0.0993.

As for C19A A33G, the self-cleavage was 0.155. With U18C A30U, the self-cleavage was determined as 0.512. C19A A32G: the self-cleavage amounted to 0.177. The same measure for U18G G43U: 0.0664; for C19A G39U: 0.124. In the case of U18C G42U it was 0.0957; in that of U18C G42A, 0.0575. In the case of U18C G41U, the self-cleavage amounted to 0.13. The same measure for U18C G41C: 0.0753; for U18C C27U: 0.182. As for U18C C27A, the self-cleavage was found to be 0.0979.

As for C19A A35U, the self-cleavage came to 0.29.

With C19A A35C, the self-cleavage stood at 0.313.

With U18G C21U, the self-cleavage was found to be 0.0712. With U18A G24C, the self-cleavage is 0.0951. In the case of U18A G24A it was 0.0868. In the case of U18A G24U it was 0.094; in that of U18C G47U, 0.288. In the case of U18C G47A, the self-cleavage is 0.288. U18C G47C: the self-cleavage is 0.162. The same measure for U18A G39A: 0.104; for U18A U31A: 0.584. The same measure for U18C G38U: 0.261; for U18G A30C: 0.14. In the case of U18G A30G it was 0.0594. Regarding U18A C19G, the self-cleavage was 0.0926.

As for U18A C19U, the self-cleavage was determined as 0.266. With U18C G28A, the self-cleavage stood at 0.181. Turning to U18C G28C, the self-cleavage was 0.124. U18G A34G: the self-cleavage was 0.079.

As to U18G G38A, the self-cleavage worked out at 0.0601. The same measure for U18G C27A: 0.0641; for U18G C27U: 0.0822; for U18G C27G: 0.0399. The same measure for U18G G44A: 0.0959. In the case of U18A G38U it was 0.144; in that of U18A G44U, 0.543. Take C19A C21A: the self-cleavage amounted to 0.0702. With C19A C21G, the self-cleavage was 0.0812. In the case of U18A G41U it was 0.125. The same measure for U18A G41C: 0.0769; for U18C A22C: 0.397; for U18C A22U: 0.243. The same measure for C19A A23U: 0.114; for C19A A23G: 0.0964; for U18G G48A: 0.0606. On to U18G G48C, for which the self-cleavage worked out at 0.111. Turning to U18G A33G, the self-cleavage came to 0.0866. The same measure for U18G A33C: 0.0995; for U18C A35G: 0.139; for U18C A35C: 0.641.

For U18G G42C, the self-cleavage turned out to be 0.0775. In the case of U18G G42U it was 0.0585; in that of U18G G42A, 0.0696; in that of U18G G29A, 0.089. For U18G G29U, the self-cleavage amounted to 0.0942. With U18A G36A, the self-cleavage came to 0.111. The same measure for U18A G36C: 0.0768; for U18A G36U: 0.172.

For the variant U18A C21U, the self-cleavage turned out to be 0.0595.

Turning to U18C A34G, the self-cleavage came out at 0.142. Regarding U18C A34U, the self-cleavage was 0.149.

In the case of U18C A34C, the self-cleavage was determined as 0.0598. Regarding U18A A40U, the self-cleavage is 0.147.

In the case of U18A A40C, the self-cleavage is 0.133. In the case of U18C C21U it was 0.0707; in that of U18C C21A, 0.0881. In the case of U18G C19A it was 0.0794; in that of U18G C19G, 0.114. The same measure for U18G C26U: 0.0716. Take U18G C26A: the self-cleavage is 0.0682. As for U18G G28A, the self-cleavage came to 0.0711. In the case of U18G G28C it was 0.102; in that of U18A G47U, 0.174; in that of U18A C26U, 0.158. Take U18A C26A: the self-cleavage turned out to be 0.313. As to U18G G45A, the self-cleavage is 0.0963. Regarding U18G G45C, the self-cleavage worked out at 0.0995. In the case of U18G G45U it was 0.0852; in that of U18G A40G, 0.0494. Turning to U18G A40U, the self-cleavage was found to be 0.0452.

As to U18A G48A, the self-cleavage was 0.279. The same measure for C19A C20U: 0.0818; for C19A C20G: 0.093. Consider C19A C20A, for which the self-cleavage worked out at 0.0769.

C19A A34C: the self-cleavage came out at 0.0755. As for C19A A34G, the self-cleavage is 0.101.

As to U18A U37G, the self-cleavage worked out at 0.137.

On to U18A U37A, for which the self-cleavage worked out at 0.0711. The same measure for U18G U37G: 0.0758; for U18G U37A: 0.063.
